The assay deals with T1, human DLL3 (immobilized human DLL3 or h293-hDLL3 cells) (human, UniProt Q9NYJ7 27-492, limits assumed).
T1 construct: the sentence says 'immobilized human DLL3 or h293-hDLL3 cells'
T1 sequence: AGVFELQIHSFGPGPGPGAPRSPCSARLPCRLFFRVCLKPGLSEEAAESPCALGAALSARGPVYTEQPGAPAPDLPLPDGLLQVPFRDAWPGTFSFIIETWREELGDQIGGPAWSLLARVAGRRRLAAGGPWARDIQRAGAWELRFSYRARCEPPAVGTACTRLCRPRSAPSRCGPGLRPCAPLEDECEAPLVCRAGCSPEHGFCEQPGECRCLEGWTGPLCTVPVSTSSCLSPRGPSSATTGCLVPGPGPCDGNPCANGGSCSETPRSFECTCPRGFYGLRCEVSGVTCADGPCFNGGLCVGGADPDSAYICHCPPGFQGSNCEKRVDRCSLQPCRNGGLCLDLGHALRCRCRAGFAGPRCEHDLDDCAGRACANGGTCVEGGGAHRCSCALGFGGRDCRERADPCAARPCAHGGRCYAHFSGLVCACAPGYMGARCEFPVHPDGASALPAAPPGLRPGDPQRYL
As to the kind of experiment: hybridoma screening on immobilized human DLL3 or on h293-hDLL3 cells.

8 molecules from patent US20180044415A1 (AbbVie / Abbott, published 2018) can be followed below.

B1: SC16.72 (antibody, V domains shown)
VH: EVQLQQSGPELVKPGASVKMSCKASGYTFTSYVMHWVKQKPGQGLEWIGYINPYNDGTKYNEKFKGKATLTSDKSSSTAYMELSSLTSEDSAVYYCARLRSRAMDYWGQGTSVTVSS
VL: ENVLTQSPAIMSASLGEKVTMSCRASSSVNYMSWYQQKSDASPKLWIYYTSNLAPGVPARFSGSGSGNSYSLTISSMEGEDAATYYCQQFTSSPYTFGGGTKLEIK
notes: murine mAb; variable regions only
Turning to B1, the binding result is on record as “binds”.

B2: SC16.78 (antibody, V domains shown)
VH: EVKLVESGGGLVKPGGSLKLSCAASGFTFGRYVMSWVRQTPEKKLEWVASITSGGTTYYPDSVKGRFTISRDNARNILYLQMSSLRSEDTAMYYCARVYYHYDDIFAYWGQGTLVTVSA
VL: DIKMTQSPSSMYASLGERVTITCKASQDINSYLSWFQQKPGRSPKTLIYRANRLVDGVPSRFSGSGSGQDYSLTISSLDYEDMGIYYCLQYDEFPFTFGSGTKLEIK
notes: as for B1
Turning to B2, the binding result is given as “binds”.

B3: SC16.73 (antibody, V domains shown)
VH: QVQLQQSGAELMKPGASVKISCKANGYTFSSYWIEWLRQRPGHGLEWIGEILPGSDNSNYNEKFKGKATFTADTSSNTAYMQLSSLTSEESAVYYCTRGLRRDGSYYYVMEHWGQGTSVTVSS
VL: DIQMTQSPSSLSASLGERVSLTCRASQDIGYSLNWLQQEPDGTIKRLIYATSSLDSGVPKRFSGSRSGSDYSLTISSLESEDFVDYYCLQYASSPWTFGGGTKLEIK
notes: as for B1
Turning to B3, the binding result is reported as “binds”.

B4: SC16.65 (antibody, V domains shown)
VH: QVTLKESGPGILQPSQTLSLTCSFSGFSLSTSGMGVGWIRQPSGKGLEWLALIWWDDVKRYNPALKSRLTISKDASSSQVFLKIASVDTADTATYYCARIASYDYDVVYAMDYWGQGTSVSVSS
VL: QIVLTQSPALMSASPGEKVTMTCSVTSSVSYMYWYQQKPRSSPKPWIYLTSNLASGVPARFSGSGSGTSYSLTISSVEAEDAATYYCQQWRNNPFTFGSGTKVEIK
notes: as for B1
In the case of B4, the binding result is given as “binds”.

B5: SC16.80 (antibody, V domains shown)
VH: EVQLQQSGPELVKPGGSKKISCKASGYSFTGYSMNWVKQSHGKNLEWIGLINPYSGGTIYNQKFKGKATLTVDKSSSTAYMELLSLTSEDSAVYYCARRSDYPLVYWGQGTLVTVSA
VL: ETTVTQSPASLSMAIGEKVTIRCITSTDIDDDMIWYQQKPGEPPKLLISEGNTLRPGVPSRFSSSGYGTDFVFTIENMLSEDVADYYCLKRDDLPYTFGGGTQVEIK
notes: as for B1
B5: the binding result is on record as “binds”.

B6: SC16.79 (antibody, V domains shown)
VH: EVQLQQSGPELVKPGASVKISCKTSGYTFTEYTMHWVKQSHGKSLEWIGGINPNNGGTSYNQKFKGKATLTVDKSSSTAYMELRSLTSEDSAVYYCARGPAWFAYWGQGTLVTVSA
VL: DIVMSQSPSSLAVSAGEKVTMSCKSSQSLLNSRTRKNYLAWYQQKPGQSPKLLIYWASTRESGVPDRFTGSGSGTDFTLTISSVQAEDLAVYYCKQSYNLYTFGGGTKLKIK
notes: as for B1
With B6, the binding result is listed as “binds”.

B7: SC16.67 (antibody, V domains shown)
VH: EVQLVETGGGLVQPKGSLKLSCAVSAFTFTTYAMNWVRQAPGKGLEWVARIRNKSNNYATYYADSVKDRFTISRDDSQSMLYLQMNNLKIEDTAMYYCVFYYDYVYWGQGTLVTVSA
VL: QAVVTQESALTTSPGETVTLTCRSSTGAVTTSNYANWIQEKPDHLFTGLIGGTNNRAPGVPARFSGSLIGDKAALTITGAQTEDEAIYFCGLWYSNHLVFGGGTKLTVL
notes: as for B1
As for B7, the binding result was “binds”.

B8: SC16.81 (antibody, V domains shown)
VH: QVQLKESGPVLVAPSQSLSITCTVSGFSLTSYGVHWVRQPPGKGLEWLGVIWAGGSTNYNSALMSRLSISKDNSKSQVFLKMNSLQTDDTAMYYCAKQGNFYAMDYWGQGTSVTVSS
VL: QIVLTQSPAIMSASLGERVTLTCTASSSVSSSYLHWYQQKPGSSPKLWIYSTSNLASGVPTRFSGSGSGTSYSLRISSMEAEDAATYYCHQYNRSPLTFGAGTKLELK
notes: as for B1
Consider B8, for which the binding result is given as “binds”.
